Experimental data published in US20110300131A1.

T1: CD70 expressed by cancer cell lines and tumor tissues (786-O, SK-OV-3/SKOV-3, Caki-1, PANC-1 and others) (UniProt P32970)
T1 sequence (looked up): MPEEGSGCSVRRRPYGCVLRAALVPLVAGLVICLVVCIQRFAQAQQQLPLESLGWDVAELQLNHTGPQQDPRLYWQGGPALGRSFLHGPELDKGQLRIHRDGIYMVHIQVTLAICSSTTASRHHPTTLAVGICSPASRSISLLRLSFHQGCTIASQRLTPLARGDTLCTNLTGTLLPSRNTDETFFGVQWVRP

B1: h1F6vc-MMAF(4) (antibody, INN chains, looked up, V domains shown)
VH: QVQLVQSGAEVKKPGASVKVSCKASGYTFTNYGMNWVRQAPGQGLKWMGWINTYTGEPTYADAFKGRVTMTRDTSISTAYMELSRLRSDDTAVYYCARDYGDYGMDYWGQGTTVTVSS
VL: DIVMTQSPDSLAVSLGERATINCRASKSVSTSGYSFMHWYQQKPGQPPKLLIYLASNLESGVPDRFSGSGSGTDFTLTISSLQAEDVAVYYCQHSREVPWTFGQGTKVEIK
modifications: vc-MMAF, 4 drugs per antibody
B2: h1F6mc-MMAF(8) (antibody, INN chains, looked up, V domains shown)
VH: B1 VH
VL: B1 VL
modifications: mc-MMAF, 8 drugs per antibody
B3: h1F6vc-MMAE(4) (antibody, INN chains, looked up, V domains shown)
VH: B1 VH
VL: B1 VL
modifications: vc-MMAE, 4 drugs per antibody

Molecular target: T1, CD70 expressed by cancer cell lines and tumor tissues (786-O, SK-OV-3/SKOV-3, Caki-1, PANC-1 and others)
Assay: cell-based or functional assay

Row | Molecule | IC50, viability of SKOV-3 cells after 96 hours (Promega CelltiterGlo) [µg/mL]
1 | h1F6mc-MMAF(4) (antibody) | 0.029
2 | B1 | 0.005
3 | B2 | 0.012
4 | B3 | 0.06
